Key:
Assay type in all cases: cell-based
[1] = tested on: differentiated GFP-ATXN1[82Q] SHSY5Y cells; test: Neurite changes after S100B treatment, mutant ataxin-1 cells; settings: 3.0 μM S100B 48 hrs, vs untreated
Protocol: FIG. 15: GFP-ATXN1[82Q] SHSY5Y stable cells were placed on 2-well slides and subjected to treatment with 25 nM TPA for 3 days to produce differentiated SHSY5Y cells. Next, slides were fixed and probed with (a &b) GFP, (a) Synaptophycin and (b) RAGE antibodies and fluorescent secondary antibodies Alexa 488 and Alexa 546 followed by DAPI staining. Scale Bars: […]. Differentiated SHSY5Y cells were treated with 3.0 μM S100B for 48 hrs and neurite changes were visualized under the microscope. (c) Data is shown as MEAN±STDEV of the percentage of cells with neurites, n=100. (d) Data is shown as MEAN±SE of neurite length, n=100. Statistics were taken using student's t-test. *P<0.05.
SHSY5Y cells (Invitrogen, Carlsbad, Calif., USA) were maintained in DMEM/F12 media (Fisher, Houston, Tex., USA) supplemented with 15% FBS, penicillin-streptomycin (Sigma), and grown in an incubator at 37° C. in the presence of 5% CO2. S100B was labeled with Alexa 488 labeling kit (Invitrogen) to produce 488-S100B. […] Next, cells were washed then treated with 1 μM 488-S100B for 3 hrs and S100B uptake was analyzed by Epi-fluorescence or by Beckman Cytometric FC 500 flow cytometer as previously described (Bidwell et al., 2009). For flow cytometry experiments, 488-S100B uptake was measured by quenching extracellular fluorescence by coating the cells with Trypan Blue (Fisher) as described previously (Bidwell et al., 2009). […]

[2] = tested on: differentiated GFP-ATXN1[82Q] SHSY5Y cells; test: Oxyblot of S100B induced oxidized proteins; settings: 5 μM S100B 2 hrs; compared to GFP-ATXN1[30Q] cells
Protocol: FIG. 16: (a) GFP-ATXN1[82Q] and (b) GFP-ATXN1[30Q] SHSY5Y stable cells were placed on 12-well plates and subjected to treatment with 25 nM TPA for 3 days to produce differentiated SHSY5Y cell lines. Next, the cells were pretreated with 50 μM Synb1-ELP-TRTK for 1 hr then treated with 5 μM S100B for 2 hrs or treated with 150 μM H2O2 for 2 hrs, where control cells were treated with serum free media for 3 hrs. Then the cells were lysed and analyzed with the Oxyblot kit and a β-tubulin antibody. Shown is the resulting oxyblot/western blot data. (c) Optical densities of the protein bands were taken using ImageJ software. Graphs shown the ratio of oxidized protein/β-tubulin protein normalized to the control. Statistics were taken using the student's t-test. * GFP-ATXN1[82Q]: S100B vs Synb1-ELP-TRTK+S100B, P<0.05. ψ GFP-ATXN1[82Q]: H2O2 vs GFP-ATXN1[30Q]: H2O2, P<0.05.
GFP-ATXN1[82Q] or GFP-ATXN1[30Q] stable cells were placed on 12-well plates at a concentration of 60,000 cells per well. Cells were treated with 25 nM TPA for 3 days to produce differentiated SHSY5Y cell lines. […] Cell lysates were analyzed with the Oxyblot kit according to manufacturer's protocol ([…]) and with a β-tubulin antibody (Sigma), where 5 μgs of protein was loaded in each well of 4-20% acrylamide gel (Bio-Rad Laboratories, Hercules, Calif., USA). […]

[3] = tested on: differentiated GFP-ATXN1[30Q] SHSY5Y cells; test: Neurite changes after S100B treatment, normal ataxin-1 cells; settings: 3.0 μM S100B 48 hrs, vs untreated

B1: S100B: glial secreted EF-hand calcium binding protein, purchased from Sigma-Aldrich; applied to cells as neurotoxic stimulus (protein, UniProt P04271 2-92, looked up)
Protein S100-B: SELEKAMVALIDVFHQYSGREGDKHKLKKSELKELINNELSHFLEEIKEQEVVDKVMETLDNDGDGECDFQEFMAFVAMVTTACHEFFEHE
[1]
  neurite length: significantly reduced
  percentage of cells with neurites: significant reduction
[2]
  level of oxidized proteins after S100B treatment: greater level of oxidized proteins
[3]
  effect on neurites (percentage of cells with neurites, neurite length): no significant effect

Source: US9259432B1, “Composition and methods for targeted delivery of a therapeutic compound to the brain or spinal cord of a subject for treatment of neurodegenerative diseases” (Parminder J. S. Vig, priority 2011, dated 2016)
